Measurements reported in patent publication US20220380763A1, “NUCLEIC ACID DELIVERY ENHANCER” (NATIONAL UNIVERSITY CORPORATION KOCHI UNIVERSITY, priority 2019, published 2022).
Where two headings read alike, the source gives them in different places. Numbered stars: 1 amine (or outer) side, 2 acyl side, 3 side chain; on linkers, the order of the positions; unused ones are H or OH. Square brackets hold non-standard residues; d marks the D form. Peptide text beside a SMILES is read from it. * marks the point of attachment. Pteroyl = Nc1nc2ncc(CNc3ccc(C(=O)*)cc3)nc2c(=O)[nH]1; γGlu = O=C(O)[C@H](CCC(=O)[*:2])N[*:1]; Dab = NCC[C@H](N)C(=O)O

Experiments:
SNORA18 = SNORA18 siRNA (SEQ ID NOs: 5 and 6) in combination; Dab8 1 eq, Fol-Dab8A 3 eq, Fol-Dab8B 1 eq; S2-013 cells, 48 hours
Method: (§1) Scrambled control siRNA (SEQ ID NOs: 3 and 4), SNORA18 siRNA (SEQ ID NOs: 5 and 6), NUP85 siRNA (SEQ ID NOs: 7 and 8), WASF2 siRNA (SEQ ID NOs: 9 and 10), and SNORA22 siRNA (SEQ ID NOs: 11 and 12), to which a cationic oligopeptide or a folic acid-cationic peptide was added (a complex of Dab8 with siRNA in 1 equivalent, a complex of Fol-Dab8A with siRNA in 3 equivalents, and a complex of Fol-Dab8B with siRNA in 1 equivalent), were each added to the culture solution the S2-013 cells in a 6-well plate (Thermo Fisher Scientific Inc.) (1.0×10^5 cells/well), and the cells were recovered after 48 hours.
(§2) Semi-quantitative RT-PCR was performed using RNA from the recovered cells to confirm the knockdown effects of SNORA18, NUP85, WASF2, and SNORA22 in the cells.
(§3) Specifically, the total RNA obtained from the S2-013 cells was reverse-transcribed using StrataScript reverse transcriptase (Agilent) and random primers. Appropriate dilutions of each single-stranded cDNA were prepared for subsequent PCR amplification. GAPDH mRNA was used as an internal quantitative control.
(§4) PCR reactions were performed on a TaKaRa PCR Thermal Cycler Dice Gradient with initial denaturation at 94° C. for 2 minutes, followed by 94° C. for 30 seconds, 58° C. for 30 seconds, and 72° C. for 1 minute for 21 cycles (for GAPDH) or 25 cycles (for SNORA18, NUP85, WASF2, and SNORA22). Scanning and densitometric analysis for band intensity measurements were performed using the Quantity One analysis system (Bio-Rad).

NUP85 = NUP85 siRNA (SEQ ID NOs: 7 and 8) in combination; Dab8 1 eq, Fol-Dab8A 3 eq, Fol-Dab8B 1 eq; S2-013 cells, 48 hours
Method: as §1, §2, §3, §4

WASF2 = WASF2 siRNA (SEQ ID NOs: 9 and 10) in combination; Dab8 1 eq, Fol-Dab8A 3 eq, Fol-Dab8B 1 eq; S2-013 cells, 48 hours
Method: as §1, §2, §3, §4

SNORA22 = SNORA22 siRNA (SEQ ID NOs: 11 and 12) in combination; Dab8 1 eq, Fol-Dab8A 3 eq, Fol-Dab8B 1 eq; S2-013 cells, 48 hours
Method: as §1, §2, §3, §4

[1] = test system: bovine pancreas-derived RNase A; settings: 1 or more equivalents; 10 nM siRNA, 37° C., 60 minutes
Method: RNA-degrading enzyme resistance of the nucleic acid duplex was tested in the presence of a cationic oligopeptide.
In this Example, peptides were added to the annealed RNA duplex to form a complex, and the rate of RNA degradation was measured.
Subsequently, the mixture was kept at 95° C. for 5 minutes and then slowly cooled to 4° C. at −0.5° C./min.
Thereafter, 15 μL of 100 μg/mL bovine pancreas-derived RNase A (manufactured by F. Hoffmann-La Roche, Ltd.) was added with stirring at 37° C., and fluorescence intensity measurement was started to track changes over time (excitation wavelength: 490 nm; measurement wavelength: 520 nm; and measurement time: 60 minutes).

[2] = test system: RNA duplex (siRNA, SEQ ID NO: 1 and 2); settings: for Tm: 4 μM nucleic acid duplex, 100 mM NaCl, pH 7.0; for ΔTm: versus no peptide (72.3)
Method: The melting temperature of the nucleic acid duplex was measured in the presence and absence of the cationic oligopeptide or folic acid-cationic oligopeptide complex synthesized in Example 1.
In this Example, the cationic oligopeptide (Dab8) or the folic acid-cationic oligopeptide (Fol-Dab8A or Fol-Dab8B) was added to an annealed RNA duplex, and the melting temperature (Tm value) was measured. As the RNA duplex, an oligonucleotide pair consisting of the following sequences was used as an siRNA.
After 144 μL of 50 μM nucleic acid solution was prepared and kept at 95° C. for 5 minutes, it was slowly cooled to 4° C. at −0.5° C./min. The solution was added to a mixed solution of pH 7.0 buffer containing 200 mM NaCl and 20 mM Na2HPO4—NaH2PO4 in OTSUKA DISTILLED WATER, and 0.1 mM peptide aqueous solution, and samples were adjusted to a final concentration of 10 mM Na2HPO4—NaH2PO4, 100 mM NaCl, 4 μM nucleic acid duplex, and 0, 4, 8, 12, 16, and 20 μM peptide (0, 1, 2, 3, 4, and 5 equivalents, respectively).
The temperature was increased from 20° C. to 95° C. at 0.5° C./min, and the absorbance at 260 nm was measured to determine a melting curve. The absorbance at 320 nm was measured to remove background noise, and a melting curve was created by subtracting the absorbance at 320 nm from the absorbance at 260 nm, and the Tm value was determined by a median method.

SMILES | knockdown effect on SNORA18 (SNORA18) | knockdown effect on NUP85 (NUP85) | knockdown effect on WASF2 (WASF2) | knockdown effect on SNORA22 (SNORA22) | rate of increase in fluorescence intensity (degradation of RNA duplex by RNase A) [1] | Tm ([2]; 1 equivalent peptide) | ΔTm ([2]; 1 equivalent peptide) | Tm ([2]; 2 equivalents peptide) | ΔTm ([2]; 2 equivalents peptide) | Tm ([2]; 3 equivalents peptide) | ΔTm ([2]; 3 equivalents peptide) | Tm ([2]; 4 equivalents peptide) | ΔTm ([2]; 4 equivalents peptide) | Tm ([2]; 5 equivalents peptide) | ΔTm ([2]; 5 equivalents peptide)
NCC[C@H](NC(=O)[C@H](CCN)NC(=O)[C@H](CCN)NC(=O)[C@H](CCN)NC(=O)[C@H](CCN)NC(=O)[C@H](CCN)NC(=O)[C@H](CCN)NC(=O)[C@H](CCN)NC(=O)CNC(=O)CNC(=O)CNC(=O)[C@H](CCC(=O)O)NC(=O)c1ccc(NCc2cnc3nc(N)[nH]c(=O)c3n2)cc1)C(N)=O [Fol-Dab8B] (Pteroyl-EGGG[Dab][Dab][Dab][Dab][Dab][Dab][Dab][Dab]-NH2) | remarkable knockdown effects | remarkable knockdown effects | remarkable knockdown effects | remarkable knockdown effects | slower | 74.5 °C | 2.2 | 76.4 °C | 4.1 | 77.7 °C | 5.4 | 78.5 °C | 6.2 | 79.8 °C | 7.5
NCC[C@H](NC(=O)[C@H](CCN)NC(=O)[C@H](CCN)NC(=O)[C@H](CCN)NC(=O)[C@H](CCN)NC(=O)[C@H](CCN)NC(=O)[C@H](CCN)NC(=O)[C@H](CCN)NC(=O)CNC(=O)CNC(=O)CNC(=O)CC[C@H](NC(=O)c1ccc(NCc2cnc3nc(N)[nH]c(=O)c3n2)cc1)C(=O)O)C(N)=O [Fol-Dab8A] ({Pteroyl-γGlu}-GGG[Dab][Dab][Dab][Dab][Dab][Dab][Dab][Dab]-NH2) | remarkable knockdown effects | remarkable knockdown effects | remarkable knockdown effects | remarkable knockdown effects | slower | 75.2 °C | 2.9 | 76.8 °C | 4.5 | 77.7 °C | 5.4 | 78.7 °C | 6.4 | 79.1 °C | 6.8
